Data published in publication PMC11417181.

B1: complement factor H, native glycosylated, full-length, purified from human plasma, P08603 19-1231 (natural protein)
chain: EDCNELPPRRNTEILTGSWSDQTYPEGTQAIYKCRPGYRSLGNVIMVCRKGEWVALNPLRKCQKRPCGHPGDTPFGTFTLTGGNVFEYGVKAVYTCNEGYQLLGEINYRECDTDGWTNDIPICEVVKCLPVTAPENGKIVSSAMEPDREYHFGQAVRFVCNSGYKIEGDEEMHCSDDGFWSKEKPKCVEISCKSPDVINGSPISQKIIYKENERFQYKCNMGYEYSERGDAVCTESGWRPLPSCEEKSCDNPYIPNGDYSPLRIKHRTGDEITYQCRNGFYPATRGNTAKCTSTGWIPAPRCTLKPCDYPDIKHGGLYHENMRRPYFPVAVGKYYSYYCDEHFETPSGSYWDHIHCTQDGWSPAVPCLRKCYFPYLENGYNQNYGRKFVQGKSIDVACHPGYALPKAQTTVTCMENGWSPTPRCIRVKTCSKSSIDIENGFISESQYTYALKEKAKYQCKLGYVTADGETSGSITCGKDGWSAQPTCIKSCDIPVFMNARTKNDFTWFKLNDTLDYECHDGYESNTGSTTGSIVCGYNGWSDLPICYERECELPKIDVHLVPDRKKDQYKVGEVLKFSCKPGFTIVGPNSVQCYHFGLSPDLPICKEQVQSCGPPPELLNGNVKEKTKEEYGHSEVVEYYCNPRFLMKGPNKIQCVDGEWTTLPVCIVEESTCGDIPELEHGWAQLSSPPYYYGDSVEFNCSESFTMIGHRSITCIHGVWTQLPQCVAIDKLKKCKSSNLIILEEHLKNKKEFDHNSNIRYRCRGKEGWIHTVCINGRWDPEVNCSMAQIQLCPPPPQIPNSHNMTTTLNYRDGEKVSVLCQENYLIQEGEEITCKDGRWQSIPLCVEKIPCSQPPQIEHGTINSSRSSQESYAHGTKLSYTCEGGFRISEENETTCYMGKWSSPPQCEGLPCKSPPEISHGVVAHMSDSYQYGEEVTYKCFEGFGIDGPAIAKCLGEKWSHPPSCIKTDCLSLPSFENAIPMGEKKDVYKAGEQVTYTCATYYKMDGASNVTCINSRWTGRPTCRDTSCVNPPTVQNAYIVSRQMSKYPSGERVRYQCRSPYEMFGDEEVMCLNGNWTEPPQCKDSTGKCGPPPPIDNGDITSFPLSVYAPASSVEYQCQNLYQLEGNKRITCRNGQWSEPPKCLHPCVISREIMENYNIALRWTAKQKLYSRTGESVEFVCKRGYRLSSRSHTLRTTCWDGKLEYPTCAKR
modifications: here or on the partner: eight N-linked biantennary complex-type glycans, among them those at Asn1011 (SCR-17) and Asn1077 (SCR-18); eight N-linked biantennary complex-type glycans, among them those at Asn1011 (SCR-17) and Asn1077 (SCR-18)
B2: partially deglycosylated complement factor H (100 h PNGase F), P08603 19-1231 (natural protein)
chain: B1 chain
modifications: here or on the partner: N-linked glycans partly removed with PNGase F: forms with three to six glycan chains were present; N-linked glycans partly removed with PNGase F: forms with three to six glycan chains were present
B3: fully deglycosylated complement factor H (200 h PNGase F), P08603 19-1231 (natural protein)
chain: B1 chain
modifications: here or on the partner: N-linked glycans removed with PNGase F: eight, seven, six or five removed, leaving none, one, two or three glycans; N-linked glycans removed with PNGase F: eight, seven, six or five removed, leaving none, one, two or three glycans

Assays:
Settings in all cases: remark: other sources report otherwise
[1] = target: T1, complement factor H, native glycosylated, full-length, purified from human plasma (human), P08603; assay: AUC; sedimentation velocity of full-length CFH, 20 °C, 40,000 rpm, Hepes buffer, 0.2 to 1.8 mg/ml, c(s) analysis in SEDFIT, proportions from peak integration; monomer to dimer
T1 chain: B1 chain

[2] = target: T1, complement factor H, native …; assay: SPR; Biacore X100, biotinylated glycosylated CFH on a streptavidin chip (781 RU), CFH preparations flowed at 0.01 to 1.8 μM, Hepes buffer, single-cycle, 1:1 steady-state affinity fit
[3] = target: T2, partially deglycosylated complement factor H (100 h PNGase F) (human), P08603; assay: AUC; sedimentation velocity of full-length CFH, 20 °C, 40,000 rpm, Hepes buffer, 0.2 to 1.8 mg/ml, c(s) analysis in SEDFIT, proportions from peak integration; monomer to dimer
T2 chain: B1 chain

[4] = target: T3, fully deglycosylated complement factor H (200 h PNGase F) (human), P08603; assay: as above
T3 chain: B1 chain

Row | Binder | proportion of dimer [1] [%] | stoichiometry N [1] | Kd [2] [µM] | proportion of dimer [3] [%] | stoichiometry N [3] | proportion of dimer [4] [%] | stoichiometry N [4]
1 | B1 | 4 | 2 | 1.6 |  |  |  | 
2 | B2 |  |  |  | 15 | 2 |  | 
3 | B3 |  |  | 11.5 |  |  | 16 | 2
